Assay results: publication PMC10486284

Target: T1, Human TIGIT extracellular domain, C-terminal hexahistidine and AviTag (human), Q495A1
T1 chain: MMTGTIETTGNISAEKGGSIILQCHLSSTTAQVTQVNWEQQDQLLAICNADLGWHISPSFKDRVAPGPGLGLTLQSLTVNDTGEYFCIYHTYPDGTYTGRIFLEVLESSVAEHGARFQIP
Assay: SEC-MALS
Conditions: remark: other sources report otherwise

stoichiometry N: 1
B1: Human CD112 extracellular domain, C-terminal hexahistidine, Q92692 32-360 (ligand)
chain: QDVRVQVLPEVRGQLGGTVELPCHLLPPVPGLYISLVTWQRPDAPANHQNVAAFHPKMGPSFPSPKPGSERLSFVSAKQSTGQDTEAELQDATLALHGLTVEDEGNYTCEFATFPKGSVRGMTWLRVIAKPKNQAEAQKVTFSQDPTTVALCISKEGRPPARISWLSSLDWEAKETQVSGTLAGTVTVTSRFTLVPSGRADGVTVTCKVEHESFEEPALIPVTLSVRYPPEVSISGYDDNWYLGRTDATLSCDVRSNPEPTGYDWSTTSGTFPTSAVAQGSQLVIHAVDSLFNTTFVCTVTNAVGMGRAEQVIFVRETPNTAGAGATGG
modifications: here or on the partner: biotin on the BirA biotinylation tag (BLI and ProteOn SPR)
